In article PMC9136605 one finds stoichiometry N data, which are given here for one substance.

The target in this experiment is human lactate dehydrogenase C (LDHC), recombinant wild type with C-terminal His6-tag (human) (UniProt P07864).

human lactate dehydrogenase C (LDHC), recombinant wild type with C-terminal His6-tag, sequence (P07864 whole entry): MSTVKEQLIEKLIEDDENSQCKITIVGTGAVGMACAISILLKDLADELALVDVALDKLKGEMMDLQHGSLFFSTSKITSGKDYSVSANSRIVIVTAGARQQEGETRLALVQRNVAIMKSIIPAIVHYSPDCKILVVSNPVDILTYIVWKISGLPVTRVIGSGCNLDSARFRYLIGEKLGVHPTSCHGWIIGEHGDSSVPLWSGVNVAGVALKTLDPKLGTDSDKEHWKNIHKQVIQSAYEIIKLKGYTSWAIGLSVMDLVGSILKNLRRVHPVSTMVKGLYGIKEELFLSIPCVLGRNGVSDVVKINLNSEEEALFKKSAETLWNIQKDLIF

For orientation: stoichiometry N means a count of units in the complex or per binding partner. “human lactate dehydrogenase C (LDHC), recombinant wild type with C-terminal His6-tag (from UniProt P07864 1-332) (enzyme)”: the stoichiometry N amounted to 4.
